# Results reported in paper PMC10801496, “A Novel Anti-CD47 Nanobody Tetramer for Cancer Therapy” (Antibodies, 2024).
# Biological target: T1, human CD47 with His tag (Homo sapiens, UniProt Q08722)
# T1 construct: CD47, human; The alpaca was immunised with an extracellular fragment of CD47; also called recombinant CD47; source: gift from P.M. Chumakov
# Assay: SPR; recombinant CD47 anchored to a CM5 chip, nanobodies as analyte, Biacore T200
# Details: both partners purified
# T1 sequence (Q08722 19-323): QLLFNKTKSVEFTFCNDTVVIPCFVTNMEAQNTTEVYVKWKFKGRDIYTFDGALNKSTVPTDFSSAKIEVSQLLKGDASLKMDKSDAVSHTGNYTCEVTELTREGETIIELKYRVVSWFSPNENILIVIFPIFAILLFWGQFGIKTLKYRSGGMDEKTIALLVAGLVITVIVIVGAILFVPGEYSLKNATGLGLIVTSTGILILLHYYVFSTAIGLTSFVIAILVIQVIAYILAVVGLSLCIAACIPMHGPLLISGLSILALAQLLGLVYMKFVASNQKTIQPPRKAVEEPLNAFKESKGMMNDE
row,Kd,Binder
1,2000 nM,"47VHH1C17 (VHH, alpaca VHH; Cloned into pET32b+; about 17 kDa on SDS-PAGE; source: E. coli BL21DE3, purified (Ni-NTA, gel-filtration)) VHH: QVQLVESGGGLVQAGGSLRLSCAASGHTFSSYDMGWFRQAPGKEREFVAHINWSGSTYYADSVKGRFTISGGNAKNAVYLQMNSLKPEDTAVYYCGAKYAISRTWDYWGQGTQVTVSS"
2,400 nM,"47VHH1D9 (VHH, alpaca VHH; Cloned into pET32b+; about 17 kDa on SDS-PAGE; source: E. coli BL21DE3, purified (Ni-NTA, gel-filtration)) VHH: RVQAGGSLRLSCKVSGNNFRRVNMGWYRQAPGKQRDLVAWISNDGGTYYDRSLKGRFTISRDNTKNTMFLQMDSLKPEDTAVYYCNSRPSSIFGSWGQGTQVTVSS"
3,30 nM,"47VHH1H4 (VHH, alpaca VHH; Cloned into pET32b+; about 17 kDa on SDS-PAGE; also called native 47VHH1H4; source: E. coli BL21DE3, purified (Ni-NTA, gel-filtration)) VHH: QVQLVESGGGLVQAGGSLRLSCKVSGNNFRRVNMGWYRQAPGKQRDLVAWISNDGGTYYDRSLKGRFTISRDNTKNTMFLQMDSLKPEDTAVYYCNSRPSSIFGSWGQGTQVTVSS"
4,3 nM,"47VHH1H4B (VHH, as the VHH of m3 (47VHH1H4); IgA hinge linker; biotin acceptor domain BAD; About 25 kDa on SDS-PAGE; also called biotinylated 47VHH1H4; biotinylated 47VHH1H4 fragment; source: E. coli BL21DE3 carrying BirA, 0.3 mM biotin, purified (Ni-NTA, UNO S1 cation exchange)) VHH: QVQLVESGGGLVQAGGSLRLSCKVSGNNFRRVNMGWYRQAPGKQRDLVAWISNDGGTYYDRSLKGRFTISRDNTKNTMFLQMDSLKPEDTAVYYCNSRPSSIFGSWGQGTQVTVSS"
5,~30000 nM,"47VHH1A12 (VHH, alpaca VHH; Cloned into pET32b+; about 17 kDa on SDS-PAGE; source: E. coli BL21DE3, purified (Ni-NTA, gel-filtration)) VHH: QLQLVESGGGLVQAGGSLRLSCVVSGGTFSALTMGWFRDVPGKEREFVSAISFDTRTTYYSDSVKGRFAISRDNGLNTVYLDMNSLRPEDTAVYVCAADAQIGWVNRRAYDYDYWGQGTQVTVSS"
6,~30000 nM,"47VHH2B10 (VHH, alpaca VHH; Cloned into pET32b+; about 17 kDa on SDS-PAGE; source: E. coli BL21DE3, purified (Ni-NTA, gel-filtration)) VHH: QVQLVESGGGLVQPGGSLRLSCEASGFNLGYYGICWFRRAAGKEREGVACSATPDDSTYYADSVKGRFTISKDKAKNMIFLQMNDLKPEDTAVYYCVTDRKPKYGKQWLEFSEYDYWGQGTQVIVSS"
